Publication PMC9266912, “CITF1 Functions Downstream of SPL7 to Specifically Regulate Cu Uptake in Arabidopsis”
Positions count from the first letter of the chain named.

T1: His-SPL7 (SBP domain) (Arabidopsis, UniProt Q8S9G8 122-228)
T1 sequence: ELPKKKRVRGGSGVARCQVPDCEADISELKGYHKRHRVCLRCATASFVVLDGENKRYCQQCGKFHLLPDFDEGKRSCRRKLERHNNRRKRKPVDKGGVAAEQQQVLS

B1: ProCITF1-G (dsDNA)
DNA 1: CCATTTGTACTGCATAAAGACCCCCCACGTACATACAT
DNA 2: ATGTATGTACGTGGGGGGTCTTTATGCAGTACAAATGG
B2: mProCITF1-G (dsDNA)
DNA 1: B1 DNA 1 with T8G, A9C, T30G, A31C
DNA 2: B1 DNA 2 with T8G, A9C, T30G, A31C
B3: ProFRO4-G (dsDNA)
DNA 1: ACCCGTACAACGTATTCGTTACGAACCAATTTCTA
DNA 2: TAGAAATTGGTTCGTAACGAATACGTTGTACGGGT
B4: ProFRO5-G (dsDNA)
DNA 1: CTATCATGTACGTTTTTAAGAGTTTCGTACAAATTCACGT
DNA 2: ACGTGAATTTGTACGAAACTCTTAAAAACGTACATGATAG
B5: ProCOPT2-G (dsDNA)
DNA 1: GATGATGTACTTGTACTACAGTACAACACATAC
DNA 2: GTATGTGTTGTACTGTAGTACAAGTACATCATC

Columns and labels:
His-SPL7 (SBP domain) [1] = target: T1, His-SPL7 (SBP domain); experiment: EMSA; Chemiluminescent EMSA Kit (Beyotime), manufacturer's protocol; buffer, salt, pH and temperature not stated; details: protein: recombinant; tags: 6xHis (pET-28a); label: 5' biotin (probe); blunt
His-SPL7 (SBP domain) [2] = target: T1, His-SPL7 (SBP domain); experiment: competition; cold mutant against biotin-N1; Chemiluminescent EMSA Kit (Beyotime), manufacturer's protocol; buffer, salt, pH and temperature not stated; details: protein: recombinant; tags: 6xHis (pET-28a); blunt

Row | Binder | binding result (His-SPL7 (SBP domain) [1]) | binding result (His-SPL7 (SBP domain) [2])
1 | B1 | binds | –
2 | B2 | – | no binding
3 | B3 | binds | –
4 | B4 | binds | –
5 | B5 | binds | –
